Reference: US9745384B2, “Peptides useful for modulating histone demethylase function” (The Brigham and Women's Hospital, Inc., priority 2012, dated 2017)
Blank lines part the entries; values can stand above or below the molecule they belong to. Ends that are not written are not given here.

Assays:
[1] = system: CCND1 and CCNE1 expression; test: CCND1 and CCNE1 expression in breast cancer cells; assay type: cell-based; conditions: overexpression in cells (FIG. 25C)
Description: We first established stable MDA-MB-231 cell lines that express similar levels of the mutant or the wild-type full-length NPAC from cDNAs introduced with silent mutations and resistant to NPAC shRNA (data not shown). […] Thus, mutation of the LSD2-interacting residues F218, L219 and L291 of NPAC can disrupt LSD2 and NPAC functions in vivo.
We next examined if it is possible to use a small molecule to manipulate the interaction between NPAC and LSD2, thus affecting target gene expression. We have shown that a short mutant NPAC peptide (residues 214-225) can interact with LSD2 with high affinity, however, lost its cofactor activity. NPAC214-225.F217A is expected to be able to competitive inhibit the interaction between endogenous NPAC and LSD2, without stimulating LSD2 demethylase activity (FIG. 25A, right). […] Thus, unable to stimulate the histone demethylase activity of endogenous LSD2, this mutant peptide is a potent inhibitor of LSD2 function by competitively inhibiting LSD2 binding by endogenous NPAC.

[2] = system: nucleosomes purified from HeLa; test: Nucleosome pulldown by GST-NPAC proteins; assay type: binding
Protocol: Nucleosomes were purified from HeLa as previously described (Umlauf et al., 2004). To examine nucleosome binding selectivity of NPAC, 5 μg GST fusion protein bound to glutathione agarose were incubated with 20 μg nucleosomes overnight at 4° C. in nucleosome binding buffer (50 mM NaPO4 pH 7.4, 200 mM NaCl, 0.5% NP-40, 5% glycerol, 10 μM ZnSO4, 1 mM MgCl2, 1 mM DTT, 0.1 mM PMSF). After washing 4 times with the same buffer at 4° C., the beads were boiled in 1×SDS sample loading buffer and elute was resolved by 15% SDS-PAGE for immunoblot analysis or coomassie staining.
For free-DNA competition assays, human genomic DNA was purified from HeLa cells and fragmented to an average size around 300 bp by sonication. Equal amounts of GST-NPAC.d5 bound to glutathione beads were pre-incubated with 0, 5, 10, 25 μg genomic DNA fragments in nucleosome binding buffer for 30 minutes at room temperature, and equal amounts of nucleosomes were added and incubated overnight at 4° C. After extensive washing, GST-NPAC.d5 and bound nucleosomes were eluted by boiling in 1×SDS sample loading buffer, resolved by SDS-PAGE and stained with coomassie blue.

double strand DNA = test: DNA binding assay (GST-pulldown)
Protocol: 5-10 μg GST and GST-tagged NPAC truncation proteins were incubated with 1 μg linearized plasmid DNA overnight at 4° C. in 50 mM Tris pH 7.4, 200 mM NaCl, 0.2% NP-40, 1 mM MgCl2, 1 mM EDTA, 1 mM DTT, 0.02 mM ZnSO4. After extensive washing with the same buffer, bound DNA was eluted by incubating with 100 μl 10 mM Tris pH 8.0, 1% SDS for 15 minutes at 65° C. Pulldown DNA was purified using Qiagen PCR purification kit, resolved by agarose gel electrophoresis and stained with Ethidium Bromide.

His-LSD2 [3] = target: T1, His-LSD2 (Homo sapiens, UniProt Q8NB78); test: GST-pulldown of His-LSD2 by GST-NPAC proteins; assay type: binding; conditions: coomassie blue staining
T1 construct: typically 0.5 μg full-length His-LSD2; made in house; host or cells: Sf9 insect cells
T1 sequence (Q8NB78 1-822): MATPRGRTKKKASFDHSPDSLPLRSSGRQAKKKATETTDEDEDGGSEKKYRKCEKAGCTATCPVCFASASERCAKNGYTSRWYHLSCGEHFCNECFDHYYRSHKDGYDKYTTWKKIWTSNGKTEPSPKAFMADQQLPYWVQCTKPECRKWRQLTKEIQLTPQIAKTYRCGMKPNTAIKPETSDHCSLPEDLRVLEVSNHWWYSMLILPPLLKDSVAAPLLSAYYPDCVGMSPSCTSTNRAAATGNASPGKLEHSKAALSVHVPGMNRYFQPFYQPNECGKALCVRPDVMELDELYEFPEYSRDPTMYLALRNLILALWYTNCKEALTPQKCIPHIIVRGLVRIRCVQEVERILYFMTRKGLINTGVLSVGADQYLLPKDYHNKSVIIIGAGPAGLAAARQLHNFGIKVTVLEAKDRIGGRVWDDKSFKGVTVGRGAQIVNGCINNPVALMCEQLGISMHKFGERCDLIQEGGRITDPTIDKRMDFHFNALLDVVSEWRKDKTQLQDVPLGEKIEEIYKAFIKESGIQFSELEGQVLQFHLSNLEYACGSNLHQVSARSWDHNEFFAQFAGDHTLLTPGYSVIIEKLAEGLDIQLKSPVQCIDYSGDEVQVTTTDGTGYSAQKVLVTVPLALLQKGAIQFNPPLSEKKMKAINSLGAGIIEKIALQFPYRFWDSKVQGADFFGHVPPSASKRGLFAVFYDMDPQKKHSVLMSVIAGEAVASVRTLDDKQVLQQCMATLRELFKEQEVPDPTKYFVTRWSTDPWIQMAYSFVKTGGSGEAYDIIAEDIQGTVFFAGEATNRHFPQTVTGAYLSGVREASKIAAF
Protocol: […] GST or GST-NPAC fusion proteins were bound to glutathione agarose, and were incubated with 2 μg full-length His-LSD2 overnight in 50 mM NaPO4 pH 7.4, 150 mM NaCl, 0.5% NP-40, 5% glycerol, 10 μM ZnSO4, 1 mM MgCl2, 1 mM DTT, 0.1 mM PMSF at 4° C. After washed 4 times with same buffer at 4° C., glutathione agarose beads were boiled in 1×SDS sample loading buffer. Elute was resolved on a 15% SDS-PAGE gel and stained by coomassie blue.

His-LSD2 [4] = target: T1, His-LSD2; test: Nucleosome demethylation assay (NPAC cofactor activity for LSD2, immunoblot); assay type: biochemical; conditions: threshold dosage of His-LSD2; nucleosomes purified from HeLa
Protocol: For nucleosome demethylation assays, typically 0.5 μg full-length His-LSD2, 1 μg NPAC protein or peptides, and 2 μg nucleosomes purified from HeLa were used, and demethylation efficiency was analyzed by SDS-PAGE electrophoresis and immunoblot using methylation specific anti-histone H3 antibodies as previously described (Shi et al. 2004).

Molecule: GFP-NPAC214-225.F217A: GFP fusion of mutant NPAC peptide (residues 214-225) F217A, overexpressed in cells ({GFP}-DPHAHHFLLSQT; UniProt Q49A26 214-225, looked up, variant F217A)
CCND1 and CCNE1 expression on ectopic expression of the peptide [1]: consistently down regulates CCND1 and CCNE1 expression
CCND1 and CCNE1 expression on ectopic expression of the peptide ([1]; listed as NPAC.214-215.F217A peptide): down regulates CCND1 and CCNE1 expression

B3: NPAC.d4: Example 2 GST-NPAC truncation, residue 181-553 (protein, UniProt Q49A26 181-553, looked up, fragment)
chain: LTIPESSTVKGMMAGPMAAFKWQPTASEPVKDADPHFHHFLLSQTEKPAVCYQAITKKLKICEEETGSTSIQAADSTAVNGSITPTDKKIGFLGLGLMGSGIVSNLLKMGHTVTVWNRTAEKCDLFIQEGARLGRTPAEVVSTCDITFACVSDPKAAKDLVLGPSGVLQGIRPGKCYVDMSTVDADTVTELAQVIVSRGGRFLEAPVSGNQQLSNDGMLVILAAGDRGLYEDCSSCFQAMGKTSFFLGEVGNAAKMMLIVNMVQGSFMATIAEGLTLAQVTGQSQQTLLDILNQGQLASIFLDQKCQNILQGNFKPDFYLKYIQKDLRLAIALGDAVNHPTPMAAAANEVYKRAKALDQSDNDMSAVYRAYIH
modifications: GST tag
Nucleosome binding (GST-pulldown) [2]: abolish the ability to interact with nucleosomes

B4: NPAC.d3: Example 2 GST-NPAC truncation, residue 81-553 (protein, UniProt Q49A26 81-553, looked up, fragment)
chain: QAVDAVEEFLRRAKGKDQTSSHNSSDDKNRRNSSEERSRPNSGDEKRKLSLSEGKVKKNMGEGKKRVSSGSSERGSKSPLKRAQEQSPRKRGRPPKDEKDLTIPESSTVKGMMAGPMAAFKWQPTASEPVKDADPHFHHFLLSQTEKPAVCYQAITKKLKICEEETGSTSIQAADSTAVNGSITPTDKKIGFLGLGLMGSGIVSNLLKMGHTVTVWNRTAEKCDLFIQEGARLGRTPAEVVSTCDITFACVSDPKAAKDLVLGPSGVLQGIRPGKCYVDMSTVDADTVTELAQVIVSRGGRFLEAPVSGNQQLSNDGMLVILAAGDRGLYEDCSSCFQAMGKTSFFLGEVGNAAKMMLIVNMVQGSFMATIAEGLTLAQVTGQSQQTLLDILNQGQLASIFLDQKCQNILQGNFKPDFYLKYIQKDLRLAIALGDAVNHPTPMAAAANEVYKRAKALDQSDNDMSAVYRAYIH
modifications: GST tag
Nucleosome binding (GST-pulldown) [2]: abolish the ability to interact with nucleosomes

Continued, in another order:

Nucleosome binding (GST-pulldown) [2]: can readily do so
B1: NPAC.d5: Example 2 GST-NPAC truncation, residues 1-120 (protein, UniProt Q49A26 1-120, looked up, fragment)
chain: MAAVSLRLGDLVWGKLGRYPPWPGKIVNPPKDLKKPRGKKCFFVKFFGTEDHAWIKVEQLKPYHAHKEEMIKINKGKRFQQAVDAVEEFLRRAKGKDQTSSHNSSDDKNRRNSSEERSRP
modifications: GST tag
Nucleosome binding in the presence of increasing free double strand DNA ([2]; 0, 5, 10, 25 μg genomic DNA fragments): compromised the nucleosome binding ability of NPAC.d5 in a dose dependent manner
DNA binding (GST-pulldown) (double strand DNA): pulls down DNA nearly as efficiently as NPAC.d1

Nucleosome binding (GST-pulldown) [2]: failed to interact with nucleosomes
DNA binding (GST-pulldown) (double strand DNA): unable to interact with DNA
B2: NPAC.d6: Example 2 GST-NPAC truncation, residues 1-81 (protein, UniProt Q49A26 1-81, looked up, fragment)
chain: MAAVSLRLGDLVWGKLGRYPPWPGKIVNPPKDLKKPRGKKCFFVKFFGTEDHAWIKVEQLKPYHAHKEEMIKINKGKRFQQ
modifications: GST tag

LSD2 binding (GST-pulldown) (His-LSD2 [3]): sufficient for LSD2 interaction
B5: NP.d8: NPAC residues 188-252 (protein)
chain: TVKGMMAGPMAAFKWQPTASEPVKDADPHFHHFLLSQTEKPAVCYQAITKKLKICEEETGSTSIQ
modifications: also: fused to dimerising Fc or GST
Cofactor activity: stimulation of LSD2 demethylation of nucleosomal H3K4me2 (His-LSD2 [4]): significantly enhances LSD2 histone demethylase activity on nucleosomal substrates

Nucleosome binding (GST-pulldown) [2]: strong binding to nucleosomes
B6: NPAC.d2: Example 2 GST-NPAC truncation, residues 1-250 (protein, UniProt Q49A26 1-250, looked up, fragment)
chain: MAAVSLRLGDLVWGKLGRYPPWPGKIVNPPKDLKKPRGKKCFFVKFFGTEDHAWIKVEQLKPYHAHKEEMIKINKGKRFQQAVDAVEEFLRRAKGKDQTSSHNSSDDKNRRNSSEERSRPNSGDEKRKLSLSEGKVKKNMGEGKKRVSSGSSERGSKSPLKRAQEQSPRKRGRPPKDEKDLTIPESSTVKGMMAGPMAAFKWQPTASEPVKDADPHFHHFLLSQTEKPAVCYQAITKKLKICEEETGSTS
modifications: GST tag
